# According to paper PMC9482650, “Quantitative fragmentomics allow affinity mapping of interactomes” (Nature Communications, 2022):
# T1: APBA3_1, O96018
# T1 sequence (O96018 389-490, limits assumed, looked up): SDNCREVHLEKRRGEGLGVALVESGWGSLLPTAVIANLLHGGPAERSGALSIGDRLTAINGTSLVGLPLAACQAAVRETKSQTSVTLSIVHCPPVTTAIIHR
# T2: DVL3, Q92997
# T2 sequence (Q92997 244-331, limits assumed, looked up): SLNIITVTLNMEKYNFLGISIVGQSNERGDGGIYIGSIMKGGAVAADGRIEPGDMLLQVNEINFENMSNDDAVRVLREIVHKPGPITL
# T3: FRMPD1, Q5SYB0
# T3 sequence (Q5SYB0 52-145, limits assumed, looked up): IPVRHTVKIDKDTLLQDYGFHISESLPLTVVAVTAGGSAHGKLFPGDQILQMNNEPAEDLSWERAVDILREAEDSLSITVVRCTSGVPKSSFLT
# T4: HTRA4, P83105
# T4 sequence (P83105 378-476, limits assumed, looked up): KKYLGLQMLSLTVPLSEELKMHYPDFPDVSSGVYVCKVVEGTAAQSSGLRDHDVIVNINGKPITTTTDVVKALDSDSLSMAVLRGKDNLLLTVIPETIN
# T5: PDZD7_3, Q9H5P4
# T5 sequence (Q9H5P4 857-944, limits assumed, looked up): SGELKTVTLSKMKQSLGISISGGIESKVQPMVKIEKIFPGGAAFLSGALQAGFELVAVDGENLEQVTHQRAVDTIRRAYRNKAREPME
# T6: PTPN13_1, Q12923
# T6 sequence (Q12923 1088-1188, limits assumed, looked up): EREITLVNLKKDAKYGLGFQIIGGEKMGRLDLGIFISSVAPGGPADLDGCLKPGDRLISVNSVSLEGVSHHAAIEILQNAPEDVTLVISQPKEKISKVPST
# T7: RAPGEF6, Q8TEU7
# T7 sequence (Q8TEU7 525-625, limits assumed, looked up): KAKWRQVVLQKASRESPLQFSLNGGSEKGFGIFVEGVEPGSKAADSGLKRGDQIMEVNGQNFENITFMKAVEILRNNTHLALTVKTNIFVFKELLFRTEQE
# T8: RHPN1, Q8TCX5
# T8 sequence (Q8TCX5 508-602, limits assumed, looked up): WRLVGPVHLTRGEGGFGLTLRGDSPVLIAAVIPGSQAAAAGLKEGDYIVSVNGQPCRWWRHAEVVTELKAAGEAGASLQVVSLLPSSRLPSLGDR
# T9: SIPA1L2, Q9P2F8
# T9 sequence (Q9P2F8 945-1036, limits assumed, looked up): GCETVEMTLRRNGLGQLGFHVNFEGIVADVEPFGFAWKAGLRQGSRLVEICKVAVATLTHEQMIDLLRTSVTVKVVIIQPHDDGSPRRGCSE
# T10: SNTG2, Q9NY99
# T10 sequence (Q9NY99 68-166, limits assumed, looked up): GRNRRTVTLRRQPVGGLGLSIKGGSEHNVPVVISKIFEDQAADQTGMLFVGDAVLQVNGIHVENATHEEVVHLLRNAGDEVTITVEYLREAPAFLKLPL
# T11: TIAM2, Q8IVF5
# T11 sequence (Q8IVF5 885-986, limits assumed, looked up): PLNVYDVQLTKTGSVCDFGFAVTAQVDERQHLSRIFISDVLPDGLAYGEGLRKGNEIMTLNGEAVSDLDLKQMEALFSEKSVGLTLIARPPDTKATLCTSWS
# Biological target: T1, APBA3_1, O96018
# Test: holdup assay
# Design: key: below the threshold = too weak to quantify, mostly under pKd 3.1 to 4
# Conditions: plain residues with an end cap or a label only (N-terminal biotin on a linker: ado-ado)
row,pKd,Binder
1,below the threshold,"TISFTQTSQF [SLC1A1, P43005]"

# Biological target: ARHGEF12, Q9NZN5-2
# Test: holdup assay
# Design: key: below the threshold = too weak to quantify, mostly under pKd 3.1 to 4
# Conditions: plain residues with an end cap or a label only (N-terminal biotin on a linker: ado-ado)
# Sequence of ARHGEF12, Q9NZN5-2 (Q9NZN5 other isoform, or with tags, fused parts or gaps): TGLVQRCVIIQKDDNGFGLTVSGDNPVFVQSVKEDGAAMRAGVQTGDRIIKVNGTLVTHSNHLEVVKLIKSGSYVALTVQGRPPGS
row,pKd,Binder
1,3.79,"TISFTQTSQF [SLC1A1, P43005]"

# Biological target: DLG2_3, Q15700
# Test: holdup assay
# Design: key: below the threshold = too weak to quantify, mostly under pKd 3.1 to 4
# Conditions: plain residues with an end cap or a label only (N-terminal biotin on a linker: ado-ado)
row,pKd,Binder
1,3.71,"TISFTQTSQF [SLC1A1, P43005]"

# Biological target: T2, DVL3, Q92997
# Test: holdup assay
# Design: key: below the threshold = too weak to quantify, mostly under pKd 3.1 to 4
# Conditions: plain residues with an end cap or a label only (N-terminal biotin on a linker: ado-ado)
row,pKd,Binder
1,below the threshold,"TISFTQTSQF [SLC1A1, P43005]"

# Biological target: T3, FRMPD1, Q5SYB0
# Test: holdup assay
# Design: key: below the threshold = too weak to quantify, mostly under pKd 3.1 to 4
# Conditions: plain residues with an end cap or a label only (N-terminal biotin on a linker: ado-ado)
row,pKd,Binder
1,below the threshold,"TISFTQTSQF [SLC1A1, P43005]"

# Biological target: FRMPD2_1, Q68DX3
# Test: holdup assay
# Design: key: below the threshold = too weak to quantify, mostly under pKd 3.1 to 4
# Conditions: plain residues with an end cap or a label only (N-terminal biotin on a linker: ado-ado)
# Sequence of FRMPD2_1, Q68DX3 (Q68DX3 770-861): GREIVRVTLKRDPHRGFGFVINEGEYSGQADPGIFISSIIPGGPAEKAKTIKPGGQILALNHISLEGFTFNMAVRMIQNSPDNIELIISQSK
row,pKd,Binder
1,below the threshold,"TISFTQTSQF [SLC1A1, P43005]"

# Biological target: FRMPD2_2, Q68DX3
# Test: holdup assay
# Design: key: below the threshold = too weak to quantify, mostly under pKd 3.1 to 4
# Conditions: plain residues with an end cap or a label only (N-terminal biotin on a linker: ado-ado)
# Sequence of FRMPD2_2, Q68DX3 (Q68DX3 944-1038): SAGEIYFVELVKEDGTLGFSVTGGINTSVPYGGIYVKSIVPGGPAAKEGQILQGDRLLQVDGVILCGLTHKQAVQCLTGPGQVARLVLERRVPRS
row,pKd,Binder
1,below the threshold,"TISFTQTSQF [SLC1A1, P43005]"

# Biological target: FRMPD2_3, Q68DX3
# Test: holdup assay
# Design: key: below the threshold = too weak to quantify, mostly under pKd 3.1 to 4
# Conditions: plain residues with an end cap or a label only (N-terminal biotin on a linker: ado-ado)
# Sequence of FRMPD2_3, Q68DX3 (Q68DX3 1073-1166): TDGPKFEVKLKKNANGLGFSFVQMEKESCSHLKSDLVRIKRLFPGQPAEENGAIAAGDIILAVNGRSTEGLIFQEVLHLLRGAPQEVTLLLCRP
row,pKd,Binder
1,below the threshold,"TISFTQTSQF [SLC1A1, P43005]"

# Biological target: FRMPD4, Q14CM0
# Test: holdup assay
# Design: key: below the threshold = too weak to quantify, mostly under pKd 3.1 to 4
# Conditions: plain residues with an end cap or a label only (N-terminal biotin on a linker: ado-ado)
# Sequence of FRMPD4, Q14CM0 (Q14CM0 67-160): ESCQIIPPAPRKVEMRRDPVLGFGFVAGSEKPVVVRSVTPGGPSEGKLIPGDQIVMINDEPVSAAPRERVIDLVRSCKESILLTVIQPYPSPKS
row,pKd,Binder
1,below the threshold,"TISFTQTSQF [SLC1A1, P43005]"

# Biological target: GRASP, Q7Z6J2
# Test: holdup assay
# Design: key: below the threshold = too weak to quantify, mostly under pKd 3.1 to 4
# Conditions: plain residues with an end cap or a label only (N-terminal biotin on a linker: ado-ado)
# Sequence of GRASP, Q7Z6J2 (Q7Z6J2 96-193): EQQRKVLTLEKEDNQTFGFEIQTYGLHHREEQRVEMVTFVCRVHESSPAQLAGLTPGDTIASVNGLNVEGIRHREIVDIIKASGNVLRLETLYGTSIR
row,pKd,Binder
1,5.31,"TISFTQTSQF [SLC1A1, P43005]"

# Biological target: GRIP2_4, Q9C0E4
# Test: holdup assay
# Design: key: below the threshold = too weak to quantify, mostly under pKd 3.1 to 4
# Conditions: plain residues with an end cap or a label only (N-terminal biotin on a linker: ado-ado)
# Sequence of GRIP2_4, Q9C0E4 (Q9C0E4 446-548): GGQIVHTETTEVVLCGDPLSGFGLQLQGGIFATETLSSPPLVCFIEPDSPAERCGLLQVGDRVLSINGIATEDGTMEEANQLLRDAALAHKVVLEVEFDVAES
row,pKd,Binder
1,below the threshold,"TISFTQTSQF [SLC1A1, P43005]"

# Biological target: T4, HTRA4, P83105
# Test: holdup assay
# Design: key: below the threshold = too weak to quantify, mostly under pKd 3.1 to 4
# Conditions: plain residues with an end cap or a label only (N-terminal biotin on a linker: ado-ado)
row,pKd,Binder
1,below the threshold,"TISFTQTSQF [SLC1A1, P43005]"

# Biological target: Inadl_6, Q8NI35
# Test: holdup assay
# Design: key: below the threshold = too weak to quantify, mostly under pKd 3.1 to 4
# Conditions: plain residues with an end cap or a label only (N-terminal biotin on a linker: ado-ado)
# Sequence of Inadl_6, Q8NI35 (Q8NI35 1058-1167): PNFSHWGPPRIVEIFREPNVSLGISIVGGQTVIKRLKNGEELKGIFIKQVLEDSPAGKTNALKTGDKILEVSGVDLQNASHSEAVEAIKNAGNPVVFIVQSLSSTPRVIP
row,pKd,Binder
1,below the threshold,"TISFTQTSQF [SLC1A1, P43005]"

# Biological target: Inadl_8, Q8NI35
# Test: holdup assay
# Design: key: below the threshold = too weak to quantify, mostly under pKd 3.1 to 4
# Conditions: plain residues with an end cap or a label only (N-terminal biotin on a linker: ado-ado)
# Sequence of Inadl_8, Q8NI35 (Q8NI35 1425-1530): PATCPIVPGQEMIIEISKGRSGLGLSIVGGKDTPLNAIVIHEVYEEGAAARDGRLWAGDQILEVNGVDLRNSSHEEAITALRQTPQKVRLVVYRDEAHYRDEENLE
row,pKd,Binder
1,below the threshold,"TISFTQTSQF [SLC1A1, P43005]"

# Biological target: LNX1_1, Q8TBB1
# Test: holdup assay
# Design: key: below the threshold = too weak to quantify, mostly under pKd 3.1 to 4
# Conditions: plain residues with an end cap or a label only (N-terminal biotin on a linker: ado-ado)
# Sequence of LNX1_1, Q8TBB1 (Q8TBB1 261-371): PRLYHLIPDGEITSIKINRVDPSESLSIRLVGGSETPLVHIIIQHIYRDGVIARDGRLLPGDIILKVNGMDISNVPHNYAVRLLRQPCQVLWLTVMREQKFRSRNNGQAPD
row,pKd,Binder
1,below the threshold,"TISFTQTSQF [SLC1A1, P43005]"

# Biological target: LNX1_2, Q8TBB1
# Test: holdup assay
# Design: key: below the threshold = too weak to quantify, mostly under pKd 3.1 to 4
# Conditions: plain residues with an end cap or a label only (N-terminal biotin on a linker: ado-ado)
# Sequence of LNX1_2, Q8TBB1 (Q8TBB1 371-470): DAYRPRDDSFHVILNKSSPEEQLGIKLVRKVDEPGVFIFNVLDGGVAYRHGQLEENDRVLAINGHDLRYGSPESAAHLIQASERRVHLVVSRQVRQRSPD
row,pKd,Binder
1,below the threshold,"TISFTQTSQF [SLC1A1, P43005]"

# Biological target: MAGI2_3, Q86UL8
# Test: holdup assay
# Design: key: below the threshold = too weak to quantify, mostly under pKd 3.1 to 4
# Conditions: plain residues with an end cap or a label only (N-terminal biotin on a linker: ado-ado)
# Sequence of MAGI2_3, Q86UL8 (Q86UL8 600-682): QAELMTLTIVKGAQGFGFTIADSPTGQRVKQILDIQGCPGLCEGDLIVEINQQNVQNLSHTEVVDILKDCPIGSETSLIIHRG
row,pKd,Binder
1,below the threshold,"TISFTQTSQF [SLC1A1, P43005]"

# Biological target: MAGI2_6, Q86UL8
# Test: holdup assay
# Design: key: below the threshold = too weak to quantify, mostly under pKd 3.1 to 4
# Conditions: plain residues with an end cap or a label only (N-terminal biotin on a linker: ado-ado)
# Sequence of MAGI2_6, Q86UL8 (Q86UL8 1141-1229): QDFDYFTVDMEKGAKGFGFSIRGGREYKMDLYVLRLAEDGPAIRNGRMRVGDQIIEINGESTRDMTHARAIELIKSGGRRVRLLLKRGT
row,pKd,Binder
1,below the threshold,"TISFTQTSQF [SLC1A1, P43005]"

# Biological target: NHERF4_4, Q86UT5
# Test: holdup assay
# Design: key: below the threshold = too weak to quantify, mostly under pKd 3.1 to 4
# Conditions: plain residues with an end cap or a label only (N-terminal biotin on a linker: ado-ado)
# Sequence of NHERF4_4, Q86UT5 (Q86UT5 464-550): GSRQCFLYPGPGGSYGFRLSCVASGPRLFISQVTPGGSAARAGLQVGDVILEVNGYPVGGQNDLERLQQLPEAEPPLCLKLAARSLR
row,pKd,Binder
1,below the threshold,"TISFTQTSQF [SLC1A1, P43005]"

# Biological target: T5, PDZD7_3, Q9H5P4
# Test: holdup assay
# Design: key: below the threshold = too weak to quantify, mostly under pKd 3.1 to 4
# Conditions: plain residues with an end cap or a label only (N-terminal biotin on a linker: ado-ado)
row,pKd,Binder
1,below the threshold,"TISFTQTSQF [SLC1A1, P43005]"

# Biological target: PDZRN4_1, Q6ZMN7
# Test: holdup assay
# Design: key: below the threshold = too weak to quantify, mostly under pKd 3.1 to 4
# Conditions: plain residues with an end cap or a label only (N-terminal biotin on a linker: ado-ado)
# Sequence of PDZRN4_1, Q6ZMN7 (Q6ZMN7 213-318): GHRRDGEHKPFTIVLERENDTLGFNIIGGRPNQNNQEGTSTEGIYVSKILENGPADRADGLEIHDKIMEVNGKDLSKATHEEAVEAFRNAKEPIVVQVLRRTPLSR
row,pKd,Binder
1,below the threshold,"TISFTQTSQF [SLC1A1, P43005]"

# Biological target: T6, PTPN13_1, Q12923
# Test: holdup assay
# Design: key: below the threshold = too weak to quantify, mostly under pKd 3.1 to 4
# Conditions: plain residues with an end cap or a label only (N-terminal biotin on a linker: ado-ado)
row,pKd,Binder
1,below the threshold,"TISFTQTSQF [SLC1A1, P43005]"

# Biological target: T7, RAPGEF6, Q8TEU7
# Test: holdup assay
# Design: key: below the threshold = too weak to quantify, mostly under pKd 3.1 to 4
# Conditions: plain residues with an end cap or a label only (N-terminal biotin on a linker: ado-ado)
row,pKd,Binder
1,below the threshold,"TISFTQTSQF [SLC1A1, P43005]"

# Biological target: T8, RHPN1, Q8TCX5
# Test: holdup assay
# Design: key: below the threshold = too weak to quantify, mostly under pKd 3.1 to 4
# Conditions: plain residues with an end cap or a label only (N-terminal biotin on a linker: ado-ado)
row,pKd,Binder
1,3.73,"TISFTQTSQF [SLC1A1, P43005]"

# Biological target: T9, SIPA1L2, Q9P2F8
# Test: holdup assay
# Design: key: below the threshold = too weak to quantify, mostly under pKd 3.1 to 4
# Conditions: plain residues with an end cap or a label only (N-terminal biotin on a linker: ado-ado)
row,pKd,Binder
1,below the threshold,"TISFTQTSQF [SLC1A1, P43005]"

# Biological target: T10, SNTG2, Q9NY99
# Test: holdup assay
# Design: key: below the threshold = too weak to quantify, mostly under pKd 3.1 to 4
# Conditions: plain residues with an end cap or a label only (N-terminal biotin on a linker: ado-ado)
row,pKd,Binder
1,below the threshold,"TISFTQTSQF [SLC1A1, P43005]"

# Biological target: T11, TIAM2, Q8IVF5
# Test: holdup assay
# Design: key: below the threshold = too weak to quantify, mostly under pKd 3.1 to 4
# Conditions: plain residues with an end cap or a label only (N-terminal biotin on a linker: ado-ado)
row,pKd,Binder
1,4.14,"TISFTQTSQF [SLC1A1, P43005]"
